Data: patent US20030113828A1, “Compositions and methods for modulating Syk function” (priority 2001, published 2003)
Where two headings read alike, the source gives them in different places. Square brackets hold non-standard residues; d marks the D form. Ends that are not written are not given here. Peptide text beside a SMILES is read from it. pY = N[C@@H](Cc1ccc(OP(=O)(O)O)cc1)C(=O)O

Assays:
Syk(6-370) = Syk(6-370) (Homo sapiens, UniProt P43405); settings: Ottinger et al. 1998, cited from earlier work
Syk [1] = target: T1, Syk (Homo sapiens, UniProt P43405); test: Syk kinase activation in vitro; assay type: biochemical
[2] = target: T2, binding of Syk(6-370) to the β3 tail (Homo sapiens, UniProt P43405); test: pITAM peptide competition in direct binding assay; settings: soluble pITAM peptide 40 μM, 8000-fold molar excess
T2 construct: made in house; host or cells: bacteria (pGEX vector, IPTG induction)
Method: To verify that the Syk-β3 interaction is pITAM-independent mechanism, the effect of 8000-fold molar excess of PITAM peptides on binding of Syk(6-370) to the β3 tail was examined. […] Similar data were obtained in a quantitative enzyme-linked immunosorbent assay. The FcεRIγ pITAM peptides were functional, as they activated Syk kinase (EC50 1-2 μM) in vitro (Shiue et al.(1995) J Biol Chem 270:10498-10502). Thus, Syk recognition of β3 involves a unique specificity, distinct from Syk's interaction with pITAMs.
(§1) Following incubation, beads were washed and bound protein was analyzed by immunoblotting.

[3] = target: T3, integrin β3 cytoplasmic tail (Homo sapiens, UniProt P05106); test: Affinity chromatography/direct binding of kinase fragments to integrin tail; settings: recombinant fragments, direct binding assay
T3 construct: made in house
T3 sequence (P05106 742-788 limits assumed): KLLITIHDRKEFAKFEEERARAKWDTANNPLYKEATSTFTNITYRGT
Method: as §1
(§2) For direct binding assays, model peptides (1 mg) were dissolved in 1 ml buffer containing 20 mM Tris (pH 7.9), 500 mM NaCl, and 6 M urea. To this, 50 ul packed His-Bind® Resin (Novagen, Madison, Wis.) was added and the mixture was rotated for 1 hour at room temperature. Immobilized peptides were washed 5× in above buffer without urea, and resuspended in 500 μl buffer containing 20 mM PIPES pH 6.8, 50 mM NaCl, 3 mM MgCl2, 150 mM sucrose, 50 mM NaF, 40 mM Na4P2O7*10H2O (buffer A) supplemented with 0.1% TritonX-100 and 3 mM MgCl2. Purified GST-fusion proteins were added to 0.5 ml buffer A supplemented with 0.1% TritonX-100 and 3 mM MgCl2. Five μl of total packed resin loaded with various integrin cytoplasmic domain model proteins was added to the GST-fusion protein. The mixture was incubated for 40 minutes at room temperature with continuous rotation. The beads were then washed five times in buffer A with 0.1% TritonX-100 and 3 mM MgCl2. Bound proteins were eluted by boiling in reducing sample buffer, fractionated by SDS PAGE, and immuno-blotted.

Zap-70 [4] = test: Affinity chromatography/direct binding of integrin tail model proteins to Zap-70; parameters: species or system human; settings: Zap-70 from cell lysates
Method: (§3) A cDNA encoding residues 1-337 of human Zap-70 was cloned into pGEX-2T (Amersham Pharmacia Biotech).
(§4) Model protein mimics of integrin cytoplasmic domains αIIb, β1A, and β3 were prepared in accordance with procedures described by Pfaff et al. (1998) J Biol Chem 273:6104-6109). The β2 integrin cytoplasmic domain model protein was developed by PCR amplification of β2 cDNA using 5′-[…] (SEQ ID NO:7) and 3′-[…] (SEQ ID NO:8) primers. This primer set introduced a 5′ HindIII restriction site into the N-terminal region of the β2 cytoplasmic domain, resulting in the mutation, A725L. The 3′ primer contained a BamHI restriction site immediately downstream of dual stop codons. The PCR product was cloned into pCR2.1 as described in the TA Cloning® system (Invitrogen, Carlsbad, Calif.). After sequencing, pCR2.1-β2cyt was digested with BamHI and HindIII, and subcloned into a modified bacterial expression plasmid pET15bm (lacking the HindIII restriction site). All model proteins were verified by sequence analysis, expressed, HPLC purified and verified by electrospray ionization mass spectroscopy as described by Pfaff et al. ((1998) J Biol Chem 273:6104-6109).
as §1
as §2, with “The beads were then washed five times in buffer A with 0.1% TritonX-100 and 3 mM MgCl2. Bound proteins were eluted by boiling in reducing sample buffer, fractionated by SDS PAGE, and immuno-blotted.” left out

Zap-70 [5] = target: T4, Zap-70 (Homo sapiens, UniProt P43403); test: as above; settings: recombinant fragment, direct binding
T4 construct: A cDNA encoding residues 1-337 of human Zap-70 was cloned into pGEX-2T; made in house; host or cells: bacteria (pGEX-2T, IPTG induction)
T4 sequence (P43403 1-337): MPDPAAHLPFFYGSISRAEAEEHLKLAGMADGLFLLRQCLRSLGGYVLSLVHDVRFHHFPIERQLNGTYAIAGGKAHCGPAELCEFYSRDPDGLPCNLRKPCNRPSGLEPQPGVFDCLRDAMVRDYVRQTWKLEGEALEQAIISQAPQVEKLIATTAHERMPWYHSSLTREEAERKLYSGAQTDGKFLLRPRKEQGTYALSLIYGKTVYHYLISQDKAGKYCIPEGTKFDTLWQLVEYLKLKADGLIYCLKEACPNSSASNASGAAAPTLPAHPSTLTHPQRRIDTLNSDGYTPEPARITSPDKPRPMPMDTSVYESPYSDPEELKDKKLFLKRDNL
Method: as §3, §4, §1
as §2, with “The beads were then washed five times in buffer A with 0.1% TritonX-100 and 3 mM MgCl2. Bound proteins were eluted by boiling in reducing sample buffer, fractionated by SDS PAGE, and immuno-blotted.” left out

Syk [6] = target: T1, Syk; test: Affinity chromatography/direct binding of integrin tail model proteins to Syk; parameters: made in house; host or cells: bacteria (pGEX vector, IPTG induction)
Method: as §4, §1, §2

[7] = target: T5, Syk binding to the β3 tail model proteins (Homo sapiens, UniProt P43405); test: β3 peptide competition in direct binding assay; settings: peptide 1×10^−4 M, Syk 5×10^−9 M
T5 construct: made in house; host or cells: bacteria (pGEX vector, IPTG induction)
Method: Phosphorylation of the β3 integrin cytoplasmic domain occurs as a consequence of integrin engagement (Law et al. (1996) J Biol Chem 271:10811-10815). To determine if phosphorylation of the β3 cytoplasmic domain could affect Syk binding, competition assays were performed using tyrosine phosphorylated or non-phosphorylated peptides in the context of the last 23 amino acids of the β3 cytoplasmic domain. Peptides were used at a concentration 1×10^−4 M, and Syk was used at a concentration of 5×10^−9 M. The non-phosphorylated peptide competed for integrin β3 tail binding to Syk. In three experiments, there was a 52±3.4% decrease in Syk binding to the β3 tail model proteins in the presence of non-phosphorylated β3-23 peptide as compared to the phosphorylated peptide (β3-23P). […] Furthermore, phosphorylation of β3(Y747,759) reduces its capacity to compete for Syk binding to the unphosphorylated β3 tail.
as §2, with “The beads were then washed five times in buffer A with 0.1% TritonX-100 and 3 mM MgCl2. Bound proteins were eluted by boiling in reducing sample buffer, fractionated by SDS PAGE, and immuno-blotted.” left out
For peptide competition assays, peptides were pre-incubated with Syk(6-370) for one hour before direct binding assays were performed. Peptides were used at a concentration of 1×10^−4 M, and Syk(6-370) was used at a concentration of 2×10^−9 M. Bound Syk was detected as described above. […]

[8] = recombinant fragment, direct binding

## CC(C)C[C@H](NC(=O)CNC(=O)[C@@H](NC(=O)[C@H](Cc1ccc(OP(=O)(O)O)cc1)NC(=O)[C@@H](NC(=O)CNC(=O)[C@@H](N)CC(=O)O)C(C)C)[C@@H](C)O)C(=O)N[C@@H](CO)C(=O)N[C@H](C(=O)N[C@@H](CCCNC(=N)N)C(=O)N[C@@H](CC(N)=O)C(=O)N[C@@H](CCC(N)=O)C(=O)N[C@@H](CCC(=O)O)C(=O)N[C@H](C(=O)N[C@@H](Cc1ccc(OP(=O)(O)O)cc1)C(=O)N[C@@H](CCC(=O)O)C(=O)N[C@H](C(=O)N[C@@H](CC(C)C)C(=O)N[C@@H](CCCCN)C(=O)N[C@H](C(=O)N[C@@H](CS)C(=O)N[C@@H](CCCNC(=N)N)C(=O)O)[C@@H](C)O)[C@@H](C)O)[C@@H](C)O)[C@@H](C)O [FcεRIγ ITAM peptide, DGVY(PO3)TGLSTRNQETY(PO3)ETLKTCR (SEQ ID NO:1)] (H-DGV[pY]TGLSTRNQET[pY]ETLKTCR-OH)
Syk(6-370); read-out: affinity of Syk for the dually phosphorylated FcεRIγ-ITAM
  Kd: 2.6 nM
Syk(6-370); reported, read-out: Kd for the interaction between Syk(6-370) and the FcεRIγ pITAM peptide
  Kd: 2.6 nM
Syk [1]
  EC50: 1000 to 2000 nM

## NQLY(PO3)NELNLGRREEY(PO3)DVLV (SEQ ID NO:2) (NQL[pY]NELNLGRREE[pY]DVLV) [dually-phosphorylated TCRξ chain ITAM peptide]
[2]
  competition with the β3 integrin cytoplasmic tail for binding to Syk(6-370): failed to compete

## Syk(163-270): Syk fragment containing only the C-terminal SH2 domain
[3]
  binding to the β3 tail: failed to bind

## Syk(R195A): C-terminal SH2 domain mutant of Syk deficient in binding to pITAMs
[3]
  binding to the β3 tail: bound

## Zap-70(1-162): N-terminal SH2 domain of Zap-70 with its intact IA domain
[3]
  binding to the β3 tail: bound β3 to a similar extent as the tandem SH2 domains

## tandem SH2 domains of SHP-2: tandem SH2 domains of SHP-2
[3]
  binding to the β3 tail: did not bind

## αIIb tail: αIIb integrin cytoplasmic tail model protein (KVGFFKRNRPPLEEDDEEGE; not fully specified)
Zap-70 [4]
  binding of Zap-70 to integrin tail model protein: no detectable binding
Zap-70 [5]
  binding of Zap-70 to integrin tail model protein: No binding was detected
Syk [6]; Syk from cell lysates
  binding of Syk to integrin tail model protein: no detectable binding
Syk [6]; [8]
  binding of Syk to integrin tail model protein: No binding was detected

## β3(759X): β3 tail with deletion of the last 4 C-terminal residues (KLLITIHDRKEFAKFEEERARAKWDTANNPLYKEATSTFTNIT; not fully specified)
Syk [6]; [8]
  binding of Syk to integrin tail model protein: abolished

## β3-23 peptide: non-phosphorylated peptide of the last 23 amino acids of the β3 cytoplasmic domain (DTANNPLYKEATSTFTNITYRGT)
[7]
  competition for integrin β3 tail binding to Syk: competed
[7]; three experiments, compared to the phosphorylated peptide (β3-23P)
  decrease in Syk binding to the β3 tail model proteins: 52±3.4%

## β3-23P: tyrosine phosphorylated peptide of the last 23 amino acids of the β3 cytoplasmic domain (DTANNPLYKEATSTFTNITYRGT; also: tyrosine phosphorylated, site not given here) [reference compound]
[7]
  competition for integrin β3 tail binding to Syk: did not detectably compete

## β3: recombinant model protein mimic of dimerized integrin β3 cytoplasmic tail (KLLITIHDRKEFAKFEEERARAKWDTANNPLYKEATSTFTNITYRGT; also: dimerised via Fc or GST (left off))
Zap-70 [4]
  binding of Zap-70 to integrin tail model protein: bound
Syk [6]; Syk from cell lysates
  binding of Syk to integrin tail model protein: bound

## β3752X: β3 tail with removal of 11 C-terminal residues Thr752-Thr762 (KLLITIHDRKEFAKFEEERARAKWDTANNPLYKEAT; not fully specified)
Syk [6]; [8]
  binding of Syk to integrin tail model protein: abolished
